Results: PMC5866196

B1: PCSK9A7-DNA (ssDNA)
DNA: CGAATCAGATTGGACCAGTCTTCCCTATTCCTCTACCGTTTGTTCTCTTACTTTCACCTTCTGGAGTCCAGATGTAGGTAG
modifications: no side-chains
B2: PCSK9A6-DNA (ssDNA)
DNA: CGAATCAGATTGGACCAGTTTCAACCTCTTCTGCCTTCTCCACGGCTCCTTCTGCGTTGTTCCGAGTCCAGATGTAGGTAG
modifications: no side-chains
B3: PCSK9A4-DNA (ssDNA)
DNA: CGAATCAGATTGGACCAGCCCCAATGCTTTTCGTTTCTATCACGTCTTTAGCGGTACCTATTCGAGTCCAGATGTAGGTAG
modifications: no side-chains
B4: PCSK9A3-DNA (ssDNA)
DNA: CGAATCAGATTGGACCAGTCTCTACAACCTCTTTCATGTCTTTAGCACTACTTATCCTGATCAGAGTCCAGATGTAGGTAG
modifications: no side-chains
B5: PCSK9A5-DNA (ssDNA)
DNA: CGAATCAGATTGGACCAGCCACGTTACTGATTCTTCTACCGTTTTTGCCCCCGGCACCTTCTGGAGTCCAGATGTAGGTAG
modifications: no side-chains
B6: PCSK9A1-DNA (ssDNA)
DNA: CGAATCAGATTGGACCAGCCACTATATTCTCTCTCCTACCGTTTGCCTTTGCATCACCTTCTGGAGTCCAGATGTAGGTAG
modifications: no side-chains
B7: PCSK9A2-DNA (ssDNA)
DNA: CGAATCAGATTGGACCAGCAACAATGATTCTTCTACCGTTTTTGCCCTCACCTTCTGCGCTGAGAGTCCAGATGTAGGTAG
modifications: no side-chains

Target: PCSK9 (UniProt Q8NBP7 31-692)
Experiment: bead retention

Chain of PCSK9 (Q8NBP7 31-692): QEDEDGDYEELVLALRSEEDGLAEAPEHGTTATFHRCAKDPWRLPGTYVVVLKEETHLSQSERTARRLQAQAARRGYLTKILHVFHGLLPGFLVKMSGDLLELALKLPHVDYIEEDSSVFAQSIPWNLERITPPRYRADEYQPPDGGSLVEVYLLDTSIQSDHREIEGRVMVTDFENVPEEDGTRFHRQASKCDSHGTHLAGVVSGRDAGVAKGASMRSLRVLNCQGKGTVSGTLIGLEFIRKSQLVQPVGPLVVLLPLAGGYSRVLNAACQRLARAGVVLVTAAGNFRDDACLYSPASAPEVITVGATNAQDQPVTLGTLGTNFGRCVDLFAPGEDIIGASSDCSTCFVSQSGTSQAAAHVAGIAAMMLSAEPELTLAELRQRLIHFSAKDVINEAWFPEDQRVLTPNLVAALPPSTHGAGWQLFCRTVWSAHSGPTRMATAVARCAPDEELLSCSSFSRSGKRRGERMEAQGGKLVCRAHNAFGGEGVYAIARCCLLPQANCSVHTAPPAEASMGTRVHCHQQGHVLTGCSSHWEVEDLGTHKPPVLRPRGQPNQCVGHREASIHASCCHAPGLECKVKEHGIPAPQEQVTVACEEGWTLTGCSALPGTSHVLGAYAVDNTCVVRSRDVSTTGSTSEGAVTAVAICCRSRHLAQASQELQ

Row | Binder | binding result
1 | B1 | no binding
2 | B2 | no binding
3 | B3 | no binding
4 | B4 | no binding
5 | B5 | no binding
6 | B6 | no binding
7 | B7 | no binding
